B1: Pistol ribozyme (parent)
chain: GGGUCGUUGUUCCAUAAUCGCGUGGAUAUGGCACGCAAGUUUCUACCGGGCACCGUAAAUGUCCGACUGGAGCCGUUCGGGCGGCUAUAAACAGACCUCAGGCCCGAAGCGUGGCGGCACCUGCCGCCGGUGGUAAAAAAGAUCGGAAGAGCACACGUCU

The variants in the series derive from B1. Description: aptazyme ON/OFF ratio, guanine; higher = stronger switching; co-transcriptional cleavage with and without guanine.
U7C U8G G9U U10A U11C: the “aptazyme ON/OFF ratio” value stood at 1.04.
On to U7C U8A G9A U10C, for which the “aptazyme ON/OFF ratio” value was 3.41.
Turning to U7G U10C U11C C12G, the “aptazyme ON/OFF ratio” value was 1.13.
For U8G G9U U10G C13G, the “aptazyme ON/OFF ratio” value amounted to 1.03.
On to U7A U8C G9C U10C U11G C12G C13U, for which the “aptazyme ON/OFF ratio” value amounted to 1.08.
Next, U8A G9A U10G U11A C12A C13U: 1.25; G9A U11G C12A C13A: 1.18; U7C U10G U11G C12A C13U: 1.26.
For the variant U8C U10A U11C C12A C13G, the “aptazyme ON/OFF ratio” value was 1.07.
As to U7C U8C G9C U10C U11G C12U C13A, the “aptazyme ON/OFF ratio” value turned out to be 1.09.
Next, U7G U8A U10C U11G C12G C13A: 1.26; U8C G9C U11C C12A C13G: 1.07; U7G G9U U10A C12A C13G: 1.26.
Next, U8C G9C U10G U11A C12U C13A: 1.06; U7A U8A G9C U11C C13U: 1.07; U7C U10G U11A C12A: 1.13.
Next, U8C G9A U10G U11C C12G C13G: 1.28; U7C G9A U10A U11C: 1.09.
U7A U8C U10C C12G: the “aptazyme ON/OFF ratio” value was 1.46.
For U11A, the “aptazyme ON/OFF ratio” value was determined as 1.84.
On to U8C G9A U10G U11G C12G C13G, for which the “aptazyme ON/OFF ratio” value came out at 1.09.
As to U7A U8A C12A C13U, the “aptazyme ON/OFF ratio” value amounted to 1.5.
Next, U7A U8C G9U U10A U11G C13A: 1.17.
Take U7G U8A G9U U10G U11A C12A C13G: the “aptazyme ON/OFF ratio” value was found to be 1.07.
Next, U7G U8A G9A U10A U11A C12U C13G: 1.12; U8C G9U U10C U11A C12G C13U: 1.08.
U7G U8C U10G U11A C13G: the “aptazyme ON/OFF ratio” value was 1.13.
Turning to U7C U8A U10C U11A C12G C13U, the “aptazyme ON/OFF ratio” value was 1.09.
Next, U7A U8A G9C U10G U11A: 1.06.
Consider U8G G9C U10G U11C C12A, for which the “aptazyme ON/OFF ratio” value worked out at 1.05.
For U7C U8A G9C C12U C13U the value was 1.19; for G9C U10A U11G C12U C13U, 1.26; for U7A U8G C13G, 1.1.
With U7C U8G G9U U11G C12G, the “aptazyme ON/OFF ratio” value was 1.35.
In the case of U7C G9U C12A, the “aptazyme ON/OFF ratio” value came to 1.13.
For U7C U8G G9A U11G C12G C13G the value was 1.27; for U11C C12A C13A, 1.53; for U7C U8C G9C U11G C12U C13A, 1.06.
Turning to U8A G9C U10G U11A C12G C13G, the “aptazyme ON/OFF ratio” value amounted to 1.52.
Next, U8G G9A U10C U11A C12U C13G: 1.05; U7A U11C C12A: 1.39.
Next, U7A U8G G9C C13U: 1.42; U7C U8A G9U U10A U11G C12A: 1.08.
Next, U8A G9U U11C C12U C13G: 1.06; U7G U8A G9A U10G U11G C12G C13U: 1.26; U7C U11G C12A: 1.18.
For the variant U7C U8G G9U U11G C12A C13A, the “aptazyme ON/OFF ratio” value was 1.17.
For the variant U7G U8G G9A U10A, the “aptazyme ON/OFF ratio” value amounted to 2.16.
With U8A G9A U11G C12G C13G, the “aptazyme ON/OFF ratio” value came to 1.26.
For U7G U8C G9C U10A U11G C12A C13U the value was 1.11; for U7C U8A G9A U11A C12G C13U, 1.19; for U7A U8A G9C U11A C13A, 1.21.
Next, C12G: 1.45; U7C U8A U10G C13G: 1.14; U7A U8A G9U U10G C12G: 1.16.
For U7C U8A G9U U10G U11G C13A the value was 1.13; for U7A U8C G9U U10G U11C, 1.03; for U7C G9U U10G U11G C12U C13U, 1.11.
As for U7C U8C U10G C12A C13A, the “aptazyme ON/OFF ratio” value worked out at 1.1.
U7C U8A G9A U10A U11C C12A C13A: the “aptazyme ON/OFF ratio” value was 1.17.
Next, U7G U8G U10A C12U C13G: 1.18; U7C G9U U10G C12U C13G: 1.15; U7C U8A G9U U10C C12A: 1.14.
For U7C G9A U10C U11G C12U C13G, the “aptazyme ON/OFF ratio” value is 1.34.
For U7C G9A U10C U11G C12U C13U the value was 1.32; for U7A U8G G9A C12U C13U, 1.04.
For U7G U8G G9A U10C U11G C12A C13G the value was 1.14; for U8G U10A C12G C13U, 1.28.
For U7C G9C U11C C12G C13U the value was 1.04.
For the variant U7G U8C G9A U10C U11G C12G, the “aptazyme ON/OFF ratio” value is 1.12.
For U7A G9U U10A U11C C12A C13G the value was 1.24; for U8G G9U C12U C13G, 1.28.
For U7G U8C U10G C12G C13U the value was 1.08; for U7A U8G G9C U10A C12A C13G, 1.26.
U8A G9C U10A U11G C12U C13G: the “aptazyme ON/OFF ratio” value is 1.18.
Turning to U7C U8G G9A U10C U11G C12A, the “aptazyme ON/OFF ratio” value is 1.07.
For G9A U10A U11A C12A the value was 1.66; for U7G G9C U11G C12U C13G, 1.27.
Next, U7A U8G U10C U11C C12U C13A: 1.45.
Next, U8A G9A U10C U11G C13A: 1.16.
For the variant U7A U10G U11G C12U, the “aptazyme ON/OFF ratio” value worked out at 1.28.
In the case of U7G U8C G9C U10C C12A, the “aptazyme ON/OFF ratio” value was found to be 1.13.
For U7G U8A U10G U11C C12G C13G the value was 1.26.

Source of the values: the RNAGym collection of RNA variant scans (doi:10.1021/acssynbio.7b00057).
